Results taken from the supplement of paper PMC10567573.

B1: SPATS1 (parent)
chain: YPEQSKGFHKAGSMLPPVNFSIVP
B2: ZNF263 (parent)
chain: FAHSSNLLRHQRIHTGERPYKCPE

Variants of: B1
Test: protein stability index of a GFP-peptide fusion (GPS, HEK-293T) (PSI 1-6); higher = more stable
Settings: c terminus: a fixed tail appended
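Also: lentivirally expressed fusions sorted by FACS into six bins by GFP to DsRed ratio, PSI derived from sequencing read proportions per bin multiplied by bin number.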

Protein stability index: each site, then its substitutions
E3: V 1.76 | C 2.35 | T 2.02 | N 2.39 | Y 2.03
I22: W 1.24 | S 2.48 | G 2.52
V23: G 1.98 | R 1.9 | H 1.43 | C 1.8
A11: S 1.78 | I 2.7 | R 2.33 | C 2.03
G12: K 1.98 | E 1.95 | N 1.94
L15: K 1.72 | S 2.04
P2: D 3.19 | H 2.04 | A 1.85 | E 3.33
V18: C 2.2 | M 2.02
S5: W 2.18 | C 1.96 | A 2.17
M14: S 2.17 | R 2.8 | K 2.47 | V 2.03 | G 1.97
S13: P 1.88 | N 2.13 | H 1.9 | T 1.7 | D 2.17 | M 1.69
P24: W 3.28 | R 1.82 | Y 2.08
F20: G 1.71 | C 2.13
F8: L 2.9 | R 3.17 | G 3.58 | I 3.44 | A 3.6 | N 3.83 | D 4.19 | Q 3.39
N19: R 1.85 | W 2.18 | T 1.75 | H 1.91 | L 2.24 | S 2.43
P16: L 1.76 | H 1.44 | R 1.99 | D 1.94
G7: L 2.24 | C 1.94 | D 2.86 | V 1.86 | Y 2.14
S21: A 1.8 | W 2.43 | T 2.52
K6: H 1.71 | E 2.41 | D 2.29
K10: C 3.44 | F 1.57 | M 1.93 | P 2
H9: K 2.56 | F 4.31 | N 2.75
Y1: V 3.31 | P 3.33 | N 3.52
Q4: A 3.18 | H 2.29 | M 1.39 | T 1.8

Variants of: B2
Test: as above
Settings: c terminus: a fixed tail appended

Protein stability index of substitutions, site by site:
L8: D 3.05 | W 2.64 | N 2.8 | G 2.35 | P 2.78 | E 3.3 | I 2.71 | F 1.8 | H 2.01 | S 3.14 | T 3.04 | V 2.55 | K 2.46 | C 2.13 | R 2.53 | Q 2.97 | M 2.68 | A 2.37 | Y 2.78
L7: F 1.84 | D 2.75 | Y 1.6 | H 2.94 | T 2.45 | G 2.43 | K 2.54 | C 2.08 | I 2.2 | N 2.93 | A 2.83 | M 2.39 | Q 3.21 | V 2.68 | E 3.14 | W 2.48 | R 2.58 | S 2.52 | P 2.02
Q11: E 2.56 | I 1.31 | F 1.48 | A 1.61 | P 1.79 | S 1.98 | D 2.98 | Y 2.49 | C 3.7 | V 2.14 | L 1.69 | M 1.84 | G 2.18 | N 3.13 | H 2.5 | R 2.2 | K 2.03 | T 2.28
R9: G 2.45 | I 2.21 | M 3.05 | T 2.9 | S 2.63 | F 2.06 | Q 2.87 | D 2.62 | N 2.85 | K 2.93 | H 2.85 | C 2.68 | A 2.39 | E 3.23 | L 2.88 | V 2.58 | Y 2.36 | P 3.19
F1: C 2.36 | N 3.9 | P 3.95 | A 3.8 | Q 4.13 | I 3.77 | R 3.46 | K 3.54 | L 2.67 | W 3.29 | D 3.9 | T 3.67 | H 4.22 | E 3.92 | Y 2.51 | S 3.34 | G 4.33 | M 3.9 | V 3.01
N6: E 2.62 | H 2 | D 2.41 | S 2.27 | G 2.21 | P 1.98 | M 2.15 | I 1.56 | Y 1.63 | A 1.77 | F 1.73 | Q 2.49 | R 1.99 | C 1.4 | V 1.91 | T 2.3 | L 1.58 | K 2.17 | W 3.04
R12: M 2.52 | Y 2.1 | E 2.95 | N 2.84 | G 2.72 | W 1.87 | D 3.3 | H 3.01 | Q 3.09 | P 2.38 | F 2.17 | A 2.91 | L 2.44 | I 2.33 | T 2.48 | K 2.56 | C 2.54 | S 2.8 | V 2.73
H3: G 2.12 | P 2.5 | S 2.22 | Q 2.03 | L 2.61 | E 1.98 | D 1.94 | A 2.15 | V 1.86 | I 2.34 | N 2.48 | K 1.86 | Y 1.96 | F 1.89 | R 2.04 | C 2.07 | M 2.41 | W 1.25 | T 2.06
S4: C 2.11 | N 2.7 | D 2.94 | M 1.86 | I 2.09 | T 2.13 | H 1.91 | E 3.05 | A 2.15 | K 2.28 | W 2.62 | F 2.55 | R 2.07 | Q 2.06 | V 2.24 | G 2.45 | P 2.62 | L 2.48 | Y 2.45
I13: H 2.77 | R 2.39 | S 2.68 | T 2.82 | V 2.13 | L 2.07 | N 2.99 | E 3.23 | A 2.85 | K 2.68 | G 2.91 | P 3.22 | F 2.14 | M 2.12 | Q 2.83 | D 3.09 | C 2.46 | W 1.99 | Y 2.43
H10: Y 2.51 | A 2.38 | E 2.77 | P 2.82 | K 1.73 | N 2.38 | D 3.13 | T 2.2 | G 2.44 | V 1.79 | C 2.76 | W 1.8 | M 1.91 | F 1.69 | R 1.8 | S 1.95 | Q 2.37 | L 1.94 | I 1.81
A2: Y 2.55 | R 2.82 | L 2.57 | V 3.61 | T 2.43 | N 3.34 | Q 2.73 | H 1.82 | F 2.17 | E 3.69 | M 2.83 | K 3.08 | P 2.67 | D 3.41 | S 3.19 | C 2.62 | I 1.89 | G 3.17 | W 2.18
S5: P 2.25 | C 2.02 | M 2.28 | E 2.75 | L 1.96 | V 2.12 | N 2.3 | I 2.31 | Q 2.15 | T 2.7 | A 2.04 | H 1.81 | Y 2.13 | W 2.24 | F 1.94 | K 1.91 | R 2.44 | D 2.87 | G 1.74
